Molecular target: T1, Gdi1 (yeast, UniProt P39958 1-451)
T1 sequence (looked up): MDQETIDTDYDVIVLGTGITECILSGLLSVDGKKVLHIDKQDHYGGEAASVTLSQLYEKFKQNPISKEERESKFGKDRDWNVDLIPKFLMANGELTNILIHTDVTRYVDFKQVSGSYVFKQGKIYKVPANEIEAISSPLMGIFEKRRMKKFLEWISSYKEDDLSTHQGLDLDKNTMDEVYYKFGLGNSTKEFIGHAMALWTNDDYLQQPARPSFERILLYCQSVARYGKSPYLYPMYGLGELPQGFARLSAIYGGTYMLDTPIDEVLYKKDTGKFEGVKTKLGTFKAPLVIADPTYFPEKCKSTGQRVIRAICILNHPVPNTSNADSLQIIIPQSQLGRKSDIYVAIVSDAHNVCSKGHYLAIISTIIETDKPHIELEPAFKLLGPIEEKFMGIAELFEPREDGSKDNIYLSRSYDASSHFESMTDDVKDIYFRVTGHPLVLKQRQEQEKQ
Test: SEC

- binding result: binds
B1: prenylated Rab6-mantGDP (natural protein, S. cerevisiae, UniProt Q99260 1-215, looked up)
chain: MSRSGKSLTKYKIVFLGEQGVGKTSLITRFMYDTFDDHYQATIGIDFLSKTMYLDDKTIRLQLWDTAGQERFRSLIPSYIRDSRVAIIVYDITKRKSFEYIDKWIEDVKNERGDENVILCIVGNKSDLSDERQISTEEGEKKAKLLGAKIFMETSTKAGYNVKALFKKIAKSLPEFQNSESTPLDSENANSANQNKPGVIDISTAEEQEQSACQC
modifications: C-terminal cysteines prenylated (geranylgeranyl)
